Results as given in the supplement of paper PMC10126150.
± gives the standard deviation of the averaged measurements.

System: ATP
Experiment: switch fluorescence ratio, 500 uM ATP over buffer (Cy3 cluster intensity, sum of 5 cycles each) (fold (ratio)); higher = stronger signal-on switching upon ATP binding; sequences stand for … in TCGTCGGCAGCGTCAGATGTGTATAAGAGACAGTTTTTTTTTTTTTTTTTTTTTTTTT…TC
Conditions: aptamer strand: ATP DNA aptamer (quencher-CACCTGGGGGAGTATTGCGGAGGAAGG + anchor), 100 nM annealed; ATP concentration: 500 uM
Method in brief: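 Five buffer/ATP imaging cycles were run on Cy3-labelled switching-strand clusters on a modified Illumina MiSeq flow-cell, with NaOH stripping and re-annealing between cycles. In each cycle, clusters annealed to 100 nM quencher-labelled ATP aptamer were imaged in selection buffer, then after 15 min with 500 uM ATP at 22 °C. Per cluster, the fluorescence ratio is summed target-cycle over summed buffer-cycle Cy3 intensity, averaged per switch-domain sequence. Only clusters within 100-1000 RFU were kept.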
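Also: ATP exposure 15 min at 22 °C before imaging.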

In the case of GAGGGGTCAG, the switch fluorescence ratio is reported as 1 ± 0.039.

In the case of GAGGGGTCCG, the switch fluorescence ratio is reported as 1 ± 0.11.

With GAGGGGTGCA the switch fluorescence ratio was 0.992 ± 0.015.

GAGGGGTGGG was tested, and the switch fluorescence ratio was 1.04 ± 0.076.

GAGGGGTTCG gave a switch fluorescence ratio of 1.01 ± 0.022.

In the case of GAGGGTACTG, the switch fluorescence ratio is reported as 1.032 ± 0.0053.

GAGGGTTAAG was tested, and the switch fluorescence ratio was 1.02 ± 0.029.

For GAGGGTTCGG, the switch fluorescence ratio was 0.972 ± 0.031.

GAGGGTTTGA gave a switch fluorescence ratio of 1.0098 ± 0.00022.

GAGGTACTGG gave a switch fluorescence ratio of 1.018 ± 0.008.

For GAGGTACTTT, the switch fluorescence ratio was 0.993 ± 0.022.

In the case of GAGGTAGCGT, the switch fluorescence ratio is reported as 1.01 ± 0.015.

GAGGTATGGG gave a switch fluorescence ratio of 0.9761 ± 0.0077.

GAGGTATTAT gave a switch fluorescence ratio of 0.9688 ± 0.0074.

Work on GAGGTCGAAA yielded a switch fluorescence ratio of 0.98 ± 0.013.

GAGGTGAGTT showed a switch fluorescence ratio of 0.983 ± 0.01.

Work on GAGGTGCCTA yielded a switch fluorescence ratio of 0.991 ± 0.02.

Sequence GAGGTGGGCT has a switch fluorescence ratio of 1 ± 0.067.

Sequence GAGGTGGGGG has a switch fluorescence ratio of 0.993 ± 0.029.

Work on GAGGTGGGTG yielded a switch fluorescence ratio of 1.015 ± 0.0056.

Work on GAGGTGTTGA yielded a switch fluorescence ratio of 0.9979 ± 0.003.

With GAGGTTAAAT the switch fluorescence ratio was 0.992 ± 0.034.

GAGGTTATAC showed a switch fluorescence ratio of 1.38 ± 0.042.

GAGGTTATAT gave a switch fluorescence ratio of 0.992 ± 0.017.

GAGGTTGGAT showed a switch fluorescence ratio of 0.982 ± 0.016.

For GAGGTTGGGC, the switch fluorescence ratio was 0.993 ± 0.03.

GAGGTTGTGG showed a switch fluorescence ratio of 0.973 ± 0.06.

Work on GAGGTTTGGC yielded a switch fluorescence ratio of 0.988 ± 0.051.

GAGTAAAATT showed a switch fluorescence ratio of 1.13 ± 0.18.

In the case of GAGTAAAGTC, the switch fluorescence ratio is reported as 0.934 ± 0.029.

With GAGTAACTCG the switch fluorescence ratio was 1.007 ± 0.0067.

For GAGTAACTGG, the switch fluorescence ratio was 0.983 ± 0.027.

Sequence GAGTAAGTGC has a switch fluorescence ratio of 0.972 ± 0.053.

With GAGTAATGTT the switch fluorescence ratio was 1.02 ± 0.016.

GAGTACAAAA gave a switch fluorescence ratio of 1.02 ± 0.015.

GAGTACCAGG was tested, and the switch fluorescence ratio was 1.25 ± 0.017.

GAGTACTAGT gave a switch fluorescence ratio of 1.015 ± 0.0072.

With GAGTACTGAG the switch fluorescence ratio was 1.163 ± 0.0012.

With GAGTACTGTT the switch fluorescence ratio was 0.972 ± 0.045.

GAGTAGGACC showed a switch fluorescence ratio of 1.03 ± 0.016.

Work on GAGTAGTAGT yielded a switch fluorescence ratio of 0.967 ± 0.026.

With GAGTAGTATA the switch fluorescence ratio was 0.992 ± 0.049.

Work on GAGTATCTTT yielded a switch fluorescence ratio of 0.998 ± 0.018.

GAGTATGGGA gave a switch fluorescence ratio of 0.983 ± 0.034.

Sequence GAGTATTAAT has a switch fluorescence ratio of 1.01 ± 0.02.

With GAGTCATGAG the switch fluorescence ratio was 1.06 ± 0.049.

For GAGTCGGTGG, the switch fluorescence ratio was 1.4 ± 0.63.

For GAGTCGTGTG, the switch fluorescence ratio was 1.04 ± 0.024.

Work on GAGTGAAGGG yielded a switch fluorescence ratio of 1.02 ± 0.016.

For GAGTGAAGGT, the switch fluorescence ratio was 0.9963 ± 0.008.

GAGTGAGGCA gave a switch fluorescence ratio of 0.981 ± 0.02.

For GAGTGAGTGG, the switch fluorescence ratio was 1.019 ± 0.0056.

GAGTGATGGC gave a switch fluorescence ratio of 1.03 ± 0.014.

With GAGTGCATGG the switch fluorescence ratio was 1 ± 0.012.

In the case of GAGTGCCGTG, the switch fluorescence ratio is reported as 1.01 ± 0.065.

For GAGTGCGAAC, the switch fluorescence ratio was 1.05 ± 0.082.

Work on GAGTGCGGTT yielded a switch fluorescence ratio of 0.99 ± 0.057.

GAGTGGGTAG showed a switch fluorescence ratio of 1.03 ± 0.025.

In the case of GAGTGGTTGC, the switch fluorescence ratio is reported as 1.05 ± 0.12.

GAGTGTCGGC showed a switch fluorescence ratio of 0.9963 ± 0.0052.

Sequence GAGTGTTTTG has a switch fluorescence ratio of 0.9957 ± 0.008.

Work on GAGTTAAGGA yielded a switch fluorescence ratio of 1.02 ± 0.03.

For GAGTTAGGCA, the switch fluorescence ratio was 1.029 ± 0.0098.

In the case of GAGTTAGGGC, the switch fluorescence ratio is reported as 0.99 ± 0.011.

GAGTTAGGGG gave a switch fluorescence ratio of 0.998 ± 0.018.

With GAGTTAGTAG the switch fluorescence ratio was 0.966 ± 0.02.

GAGTTAGTGT showed a switch fluorescence ratio of 1.03 ± 0.017.

In the case of GAGTTATCG, the switch fluorescence ratio is reported as 1.01 ± 0.018.

Sequence GAGTTATGG has a switch fluorescence ratio of 0.995 ± 0.043.

GAGTTATGGA was tested, and the switch fluorescence ratio was 1.03 ± 0.019.

GAGTTATTCG gave a switch fluorescence ratio of 1.02 ± 0.023.

GAGTTCAATG showed a switch fluorescence ratio of 1.01 ± 0.03.

With GAGTTCGAGG the switch fluorescence ratio was 1.02 ± 0.037.

With GAGTTCGCGT the switch fluorescence ratio was 1.093 ± 0.0049.

GAGTTGAGGG gave a switch fluorescence ratio of 0.973 ± 0.023.

For GAGTTGGGAT, the switch fluorescence ratio was 1.01 ± 0.011.

GAGTTGGGCT showed a switch fluorescence ratio of 0.979 ± 0.012.

In the case of GAGTTTAATC, the switch fluorescence ratio is reported as 1 ± 0.018.

GAGTTTAGGA was tested, and the switch fluorescence ratio was 0.969 ± 0.034.

GAGTTTAGTT gave a switch fluorescence ratio of 0.9893 ± 0.0064.

Sequence GAGTTTGGG has a switch fluorescence ratio of 1 ± 0.02.

GAGTTTGTGG was tested, and the switch fluorescence ratio was 0.998 ± 0.024.

GAGTTTTATG showed a switch fluorescence ratio of 0.9631 ± 0.0025.

GAGTTTTGAG gave a switch fluorescence ratio of 1 ± 0.011.

Sequence GAGTTTTGCG has a switch fluorescence ratio of 1.03 ± 0.093.

In the case of GAGTTTTGGA, the switch fluorescence ratio is reported as 1.02 ± 0.026.

GAGTTTTTGG was tested, and the switch fluorescence ratio was 0.973 ± 0.015.

Sequence GAGTTTTTTA has a switch fluorescence ratio of 0.98 ± 0.046.

With GATAAAAGGC the switch fluorescence ratio was 0.997 ± 0.024.

Sequence GATAAAATAG has a switch fluorescence ratio of 1.17 ± 0.2.

GATAAAGAAG showed a switch fluorescence ratio of 0.9999 ± 0.0071.

GATAACCATG gave a switch fluorescence ratio of 0.9933 ± 0.0035.

In the case of GATAACTGAA, the switch fluorescence ratio is reported as 1.068 ± 0.0072.

GATAAGTCAG gave a switch fluorescence ratio of 0.989 ± 0.018.

GATAATAAAC was tested, and the switch fluorescence ratio was 1.06 ± 0.045.

With GATAATTAGG the switch fluorescence ratio was 1.01 ± 0.02.

GATAATTGTC gave a switch fluorescence ratio of 0.951 ± 0.048.

With GATAATTTTT the switch fluorescence ratio was 0.9884 ± 0.0084.

In the case of GATACATAAA, the switch fluorescence ratio is reported as 1.036 ± 0.0092.

GATACATCGG gave a switch fluorescence ratio of 1.03 ± 0.018.

Sequence GATACCTTCG has a switch fluorescence ratio of 2.614 ± 0.023.

In the case of GATACGGGGC, the switch fluorescence ratio is reported as 1.02 ± 0.014.

GATACGGTTA showed a switch fluorescence ratio of 1.03 ± 0.011.

For GATACTCAGC, the switch fluorescence ratio was 1.06 ± 0.0058.

Work on GATAGAAGTG yielded a switch fluorescence ratio of 0.986 ± 0.014.

GATAGACCAG showed a switch fluorescence ratio of 1.01 ± 0.025.

Work on GATAGAGGGA yielded a switch fluorescence ratio of 0.999 ± 0.01.

With GATAGATAGG the switch fluorescence ratio was 0.967 ± 0.055.

GATAGATCAC showed a switch fluorescence ratio of 1.03 ± 0.03.

With GATAGCTTTT the switch fluorescence ratio was 1.05 ± 0.082.

In the case of GATAGGAAAT, the switch fluorescence ratio is reported as 0.977 ± 0.036.

Work on GATAGGAGGG yielded a switch fluorescence ratio of 0.959 ± 0.012.

Sequence GATAGGATAG has a switch fluorescence ratio of 0.991 ± 0.019.

Work on GATAGGGCGC yielded a switch fluorescence ratio of 1.02 ± 0.026.

GATAGGGGGT was tested, and the switch fluorescence ratio was 1.01 ± 0.061.

GATAGGGGTG showed a switch fluorescence ratio of 1.03 ± 0.03.

GATAGGGTAA gave a switch fluorescence ratio of 0.988 ± 0.039.

Sequence GATAGTAGTT has a switch fluorescence ratio of 0.9851 ± 0.0096.

In the case of GATAGTCGTG, the switch fluorescence ratio is reported as 0.994 ± 0.0056.

With GATAGTGAAG the switch fluorescence ratio was 0.993 ± 0.015.

Work on GATAGTGC yielded a switch fluorescence ratio of 1.06 ± 0.078.

In the case of GATAGTGGGA, the switch fluorescence ratio is reported as 0.997 ± 0.018.

Sequence GATAGTGTCG has a switch fluorescence ratio of 1.04 ± 0.045.

Work on GATAGTTGTA yielded a switch fluorescence ratio of 1.01 ± 0.028.

GATATAGGTT showed a switch fluorescence ratio of 1 ± 0.02.

GATATATTGT gave a switch fluorescence ratio of 0.993 ± 0.035.

With GATATCAACG the switch fluorescence ratio was 1 ± 0.047.

With GATATGATCA the switch fluorescence ratio was 0.9733 ± 0.0052.

In the case of GATATGCTAC, the switch fluorescence ratio is reported as 1.2 ± 0.023.

Work on GATATGCTAT yielded a switch fluorescence ratio of 0.9915 ± 0.0066.

Sequence GATATGTTGG has a switch fluorescence ratio of 0.999 ± 0.017.

Work on GATATTAAAG yielded a switch fluorescence ratio of 1.02 ± 0.014.

GATATTAGGA was tested, and the switch fluorescence ratio was 1 ± 0.088.

For GATATTGGGC, the switch fluorescence ratio was 1.02 ± 0.024.

For GATATTTGCG, the switch fluorescence ratio was 1.015 ± 0.0024.

GATATTTGTG gave a switch fluorescence ratio of 0.995 ± 0.016.

GATATTTTTA showed a switch fluorescence ratio of 0.98 ± 0.034.

GATCAAAGGG was tested, and the switch fluorescence ratio was 1.01 ± 0.021.

GATCAAGGGA gave a switch fluorescence ratio of 1.03 ± 0.052.

GATCACTCGT gave a switch fluorescence ratio of 1 ± 0.048.

Work on GATCAGAGGG yielded a switch fluorescence ratio of 1.008 ± 0.01.

GATCATCAGT showed a switch fluorescence ratio of 0.991 ± 0.023.

GATCATTCTT was tested, and the switch fluorescence ratio was 1.01 ± 0.016.

For GATCATTGAC, the switch fluorescence ratio was 1.066 ± 0.0057.

Sequence GATCCAGAAG has a switch fluorescence ratio of 1.017 ± 0.0036.

GATCCTGGGT was tested, and the switch fluorescence ratio was 0.974 ± 0.034.

GATCGAAAGG gave a switch fluorescence ratio of 0.966 ± 0.025.

In the case of GATCGAGAGG, the switch fluorescence ratio is reported as 0.98 ± 0.025.

Sequence GATCGAGGCG has a switch fluorescence ratio of 0.9569 ± 0.0055.

GATCGATTG showed a switch fluorescence ratio of 1.05 ± 0.051.

GATCGCGTGG gave a switch fluorescence ratio of 0.968 ± 0.012.

Sequence GATCGCTATC has a switch fluorescence ratio of 2.91 ± 0.39.

GATCGGGAAC showed a switch fluorescence ratio of 1.06 ± 0.031.

Sequence GATCTAGGGC has a switch fluorescence ratio of 1.02 ± 0.037.

Sequence GATCTATTTT has a switch fluorescence ratio of 1.01 ± 0.018.

GATCTGCCTG showed a switch fluorescence ratio of 0.985 ± 0.029.

Work on GATCTGGGGC yielded a switch fluorescence ratio of 1.06 ± 0.036.
